Source: patent publication US20220348670A1 (BIODURO BEIJING, published 2022)

Tests used:
[1] = target: T1, full-length human OX40 protein (human, UniProt P43489 29-277); test: cell-based or functional assay
T1 sequence (looked up): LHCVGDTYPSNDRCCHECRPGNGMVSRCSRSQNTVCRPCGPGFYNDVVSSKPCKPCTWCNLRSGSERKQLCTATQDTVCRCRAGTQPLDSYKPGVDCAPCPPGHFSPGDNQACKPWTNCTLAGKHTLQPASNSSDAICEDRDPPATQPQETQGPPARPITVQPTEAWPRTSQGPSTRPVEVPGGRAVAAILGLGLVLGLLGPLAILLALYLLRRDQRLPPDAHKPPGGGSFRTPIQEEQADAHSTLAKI

[2] = target: T1, full-length human OX40 protein; test: FACS on L929-hOX40 cells, PE anti-human FC secondary antibody
Procedure: The L929-hOX40 stable cell line constructed in Example 2.1 was cultured and expanded to 90% confluence in a cell culture flask. After washing with PBS, the cell culture was digested with 0.25% Trypsin (purchased from Thermofisher) to form a single-cell suspension, neutralized with 10% FBS-containing medium, and counted. After centrifugation at 1000 rpm for 5 min, the cells were resuspended to 2×10⁶ cells/mL with FACS buffer (PBS+1% FBS), added to a 96-well FACS culture plate at 200 μL per well, centrifuged at 1000 rpm for 5 min and the supernatant was removed. A series of concentration gradients of anti-human OX40 antibodies to be tested or isotype control were added at 200 μL per well, and incubated at 4° C. for 1 hour in the dark. After centrifugation at 1000 rpm for 5 min, 200 μL of PE fluorescently labeled anti-human FC secondary antibody (purchased from Invitrogen) was added to each well, and incubated at 4° C. for 1 hour in the dark. After washing twice with FACS buffer, PBS buffer containing 1% paraformaldehyde at 200 μL per well was added to resuspend the cells, and a FACS instrument (BD Accuri C6) was used for detection and analysis.

[3] = target: T1, full-length human OX40 protein; test: FACS on Jurkat-hOX40 cells, PE anti-human FC secondary antibody
Procedure: Jurkat-hOX40 stable cell lines constructed in Example 2.1 were expanded and cultured in a cell culture flask, and cells in the logarithmic growth phase were counted. The cells were centrifuged at 1000 rpm for 5 min and then resuspended in FACS buffer (PBS+1% FBS) to 2×10⁶ cells/mL, and added to a 96-well FACS culture plate at 200 μL per well. After centrifugation at 1000 rpm for 5 min, the supernatant was removed, and a series of concentration gradients of purified anti-human OX40 antibodies to be tested or isotype control were added at 200 μL per well, incubated at 4° C. for 1 hour in the dark, centrifuged at 1000 rpm for 5 min, and then added with 200 μL of PE fluorescently labeled anti-human FC secondary antibody (purchased from Invitrogen) per well, and incubated at 4° C. for 1 hour in the dark. After washing twice with FACS buffer, PBS buffer containing 1% paraformaldehyde at 200 μL per well was added to resuspend cells, and a FACS instrument (BD Accuri C6) was used for detection and analysis.

OX40-mFc protein = target: T2, OX40-mFc protein (UniProt P43489 29-214); test: phage ELISA, monoclonal phage supernatant on OX40-mFc
T2 sequence (looked up): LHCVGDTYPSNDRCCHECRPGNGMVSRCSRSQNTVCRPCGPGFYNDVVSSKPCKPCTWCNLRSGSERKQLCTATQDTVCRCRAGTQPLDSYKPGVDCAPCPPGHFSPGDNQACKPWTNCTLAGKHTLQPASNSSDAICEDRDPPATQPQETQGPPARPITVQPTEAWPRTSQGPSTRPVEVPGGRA

Milk = test: phage ELISA, monoclonal phage supernatant on milk (background control)
murine full-length OX40 = target: T3, murine full-length OX40 (murine, UniProt P47741 20-272); test: FACS on transiently transfected CHO-S cells
T3 construct: whole, on cells; also called CHOS-OX40 (mus); PCMV3-OX40 (Mus)
T3 sequence (looked up): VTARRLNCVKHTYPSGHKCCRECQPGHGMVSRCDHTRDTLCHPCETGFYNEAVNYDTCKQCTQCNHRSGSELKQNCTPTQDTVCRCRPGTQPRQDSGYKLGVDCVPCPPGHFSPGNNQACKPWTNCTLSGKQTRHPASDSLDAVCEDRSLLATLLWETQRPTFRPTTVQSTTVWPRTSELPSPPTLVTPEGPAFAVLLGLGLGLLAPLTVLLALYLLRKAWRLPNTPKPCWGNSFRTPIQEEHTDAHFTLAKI
Description: (§1) Transient transfection of OX40 expression vector: CHO-S cells were revived, and passaged for at least 2 times, and then seeded into a 6-well plate at a density of 1×10⁶ cells/well. At the following day, the above expression vectors expressing different domains of OX40 were transfected into CHO-S cells by PEI transfection method.

OX40 (CRD3-4human) = target: T4, OX40 (CRD3-4human) (human, UniProt P43489 108-277, limits assumed); test: FACS on transiently transfected CHO-S cells
T4 construct: domain: CRD3-4; Named only in the results sentence; its construction is not described; also called CHOS-OX40 (CRD3-4human)
T4 sequence (looked up): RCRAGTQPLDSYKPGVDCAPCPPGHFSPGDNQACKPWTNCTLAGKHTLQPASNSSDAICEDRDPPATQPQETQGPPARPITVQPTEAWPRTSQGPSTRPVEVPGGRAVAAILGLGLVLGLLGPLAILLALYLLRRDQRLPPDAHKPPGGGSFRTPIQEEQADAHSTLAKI
Description: as §1

| Molecule | Maximum value (RLU), NF-kB reporter gene assay [1] [RLU] | Maximum mean fluorescence intensity value (MFI) [2] [MFI] | Maximum mean fluorescence intensity value (MFI) [3] [MFI] | ELISA Results (OD450) (OX40-mFc protein) | ELISA Results (OD450) (Milk) | EC50, NF-kB reporter gene assay [1] [nM] | binding result (murine full-length OX40) | binding result (OX40 (CRD3-4human)) | EC50 [2] [nM] | EC50 [3] [nM] |
| --- | --- | --- | --- | --- | --- | --- | --- | --- | --- | --- |
| Isotype control (human IgG) (antibody) | 2650 | 8960 | 999 | – | – | – | – | – | – | – |
| OX40 BC3-7 (phage-displayed VHH clone) (VHH, Tested as phage in monoclonal culture supernatant (M13 display), not as purified protein; the phage coat fusion is not described) VHH: EVQLVESGGGLVQPGGSLRLSCAASGSIYDFDVMGWFRQAPGKGRELVAAINSFGDITYYPDSVEGRFTISRDNAKRMVYLQMNSLRAEDTAVYYCAADWHVLIQQVLGYWGQGTQVTVSS | – | – | – | 3.12 | 0.045 | – | – | – | – | – |
| anti-human OX40 antibody BC3-7 (OX40 VHH-Fc) (Fc fusion, VHH fused through a linker to human IgG Fc, expressed in ExpiCHO, purified on Protein A; also called OX40 BC3-7; OX40 VHH-Fc antibody; not shown: linker encoded by the CMV-12GS-FC vector; human IgG FC fragment (hFC)) EVQLVESGGGLVQPGGSLRLSCAASGSIYDFDVMGWFRQAPGKGRELVAAINSFGDITYYPDSVEGRFTISRDNAKRMVYLQMNSLRAEDTAVYYCAADWHVLIQQVLGYWGQGTQVTVSS | 48400 | 327000 | 24100 | – | – | 0.13 | no binding | no binding | 0.693 | 0.548 |
| OX40 BC3-6 (phage-displayed VHH clone) (VHH, Tested as phage in monoclonal culture supernatant (M13 display), not as purified protein; the phage coat fusion is not described) VHH: EVQLVESGGGLVQPGGSLRLSCAASGSILDSNLMGWFRQAPGKGRELVASINSYDDNTYYPDSVEGRFTISRDNAKRMVYLQMNSLRAEDTAVYYCAAQVFVGWPYTDQMHDYWGQGTQVTVSS | – | – | – | 3.21 | 0.045 | – | – | – | – | – |
| anti-human OX40 antibody BC3-6 (OX40 VHH-Fc) (Fc fusion, VHH fused through a linker to human IgG Fc, expressed in ExpiCHO, purified on Protein A; also called OX40 BC3-6; OX40 VHH-Fc antibody; not shown: linker encoded by the CMV-12GS-FC vector; human IgG FC fragment (hFC)) EVQLVESGGGLVQPGGSLRLSCAASGSILDSNLMGWFRQAPGKGRELVASINSYDDNTYYPDSVEGRFTISRDNAKRMVYLQMNSLRAEDTAVYYCAAQVFVGWPYTDQMHDYWGQGTQVTVSS | 50300 | 198000 | 12800 | – | – | 0.162 | no binding | no binding | 0.545 | 0.683 |
| OX40 BC3-1 (phage-displayed VHH clone) (VHH, Tested as phage in monoclonal culture supernatant (M13 display), not as purified protein; the phage coat fusion is not described) VHH: EVQLVESGGGLVQPGGSLRLSCAASGSIFSVYVMGWFRQAPGKGRELVAAITPFDDNTYYPDSVEGRFTISRDNAKRMVYLQMNSLRAEDTAVYYCAADWEWPEYNYWGQGTQVTVSS | – | – | – | 3.45 | 0.047 | – | – | – | – | – |
| anti-human OX40 antibody BC3-1 (OX40 VHH-Fc) (Fc fusion, VHH fused through a linker to human IgG Fc, expressed in ExpiCHO, purified on Protein A; also called OX40 BC3-1; OX40 VHH-Fc antibody; not shown: linker encoded by the CMV-12GS-FC vector; human IgG FC fragment (hFC)) EVQLVESGGGLVQPGGSLRLSCAASGSIFSVYVMGWFRQAPGKGRELVAAITPFDDNTYYPDSVEGRFTISRDNAKRMVYLQMNSLRAEDTAVYYCAADWEWPEYNYWGQGTQVTVSS | 53400 | 285000 | 17500 | – | – | 0.209 | no binding | no binding | 0.488 | 0.257 |
| OX40 BC3-4 (phage-displayed VHH clone) (VHH, Tested as phage in monoclonal culture supernatant (M13 display), not as purified protein; the phage coat fusion is not described) VHH: EVQLVESGGGLVQPGGSLRLSCAASGFIFSAYFMGWFRQAPGKGRELVAAINSNDDITYYPDSVEGRFTISRDNAKRMVYLQMNSLRAEDTAVYYCAAWLGAENYGYWGQGTQVTVSS | – | – | – | 3.31 | 0.045 | – | – | – | – | – |
| anti-human OX40 antibody BC3-4 (OX40 VHH-Fc) (Fc fusion, VHH fused through a linker to human IgG Fc, expressed in ExpiCHO, purified on Protein A; also called OX40 BC3-4; OX40 VHH-Fc antibody; not shown: linker encoded by the CMV-12GS-FC vector; human IgG FC fragment (hFC)) EVQLVESGGGLVQPGGSLRLSCAASGFIFSAYFMGWFRQAPGKGRELVAAINSNDDITYYPDSVEGRFTISRDNAKRMVYLQMNSLRAEDTAVYYCAAWLGAENYGYWGQGTQVTVSS | 55700 | 308000 | 24000 | – | – | 0.175 | no binding | no binding | 0.862 | 0.395 |
